Among the targets are Human PTHR1 WT (human) (UniProt Q03431); PTHR16E (human) (UniProt Q03431); PTHR1GFP (human) (UniProt Q03431); PTHR1YFPΔECD (human); rat PTHR1 (rat) (UniProt P25961); human PTHR2 (human) (UniProt P49190).
Common to all, as to assay: cell-based or functional assay

Sequence of human PTHR2 (human) (P49190 25-550): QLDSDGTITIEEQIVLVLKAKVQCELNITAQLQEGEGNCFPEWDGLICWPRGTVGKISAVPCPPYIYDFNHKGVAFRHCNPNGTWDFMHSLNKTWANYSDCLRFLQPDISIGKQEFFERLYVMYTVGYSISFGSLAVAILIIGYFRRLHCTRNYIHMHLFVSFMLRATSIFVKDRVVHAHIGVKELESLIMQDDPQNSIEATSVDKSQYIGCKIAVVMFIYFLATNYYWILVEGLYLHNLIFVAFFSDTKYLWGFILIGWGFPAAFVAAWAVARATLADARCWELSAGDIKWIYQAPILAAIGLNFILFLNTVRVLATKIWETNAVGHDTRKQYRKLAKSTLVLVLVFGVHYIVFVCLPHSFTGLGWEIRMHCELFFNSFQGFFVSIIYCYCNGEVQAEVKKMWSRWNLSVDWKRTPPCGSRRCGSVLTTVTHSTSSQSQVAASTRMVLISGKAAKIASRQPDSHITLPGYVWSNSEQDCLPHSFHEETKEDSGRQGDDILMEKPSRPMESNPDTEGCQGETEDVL
Sequence of rat PTHR1 (rat) (P25961 27-591): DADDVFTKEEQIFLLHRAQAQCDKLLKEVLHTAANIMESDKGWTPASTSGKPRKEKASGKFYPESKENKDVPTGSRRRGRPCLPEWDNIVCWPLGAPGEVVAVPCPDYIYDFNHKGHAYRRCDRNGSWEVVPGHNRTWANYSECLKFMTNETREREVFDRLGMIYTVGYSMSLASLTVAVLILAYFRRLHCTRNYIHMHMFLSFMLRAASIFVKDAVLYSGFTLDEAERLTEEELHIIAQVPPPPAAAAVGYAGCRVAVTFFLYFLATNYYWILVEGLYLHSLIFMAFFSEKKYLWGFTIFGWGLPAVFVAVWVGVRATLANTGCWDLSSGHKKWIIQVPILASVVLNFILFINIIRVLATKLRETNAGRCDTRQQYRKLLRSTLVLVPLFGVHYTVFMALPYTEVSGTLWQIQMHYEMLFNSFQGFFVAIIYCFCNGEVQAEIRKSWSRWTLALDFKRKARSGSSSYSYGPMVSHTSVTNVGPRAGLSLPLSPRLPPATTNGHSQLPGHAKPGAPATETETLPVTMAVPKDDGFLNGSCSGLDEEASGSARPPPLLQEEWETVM

Turning to PTH(1-9) (peptide), the Stimulation of receptor (cAMP), EC50 in the test with Human PTHR1 WT (human), with PTHR16E (human) and with PTHR1YFPΔECD (human) was over 10 µM each time. The cAMP induction EC50 with Human PTHR1 WT (human), with PTHR16E (human), with PTHR1GFP (human) and in the test with PTHR1YFPΔECD (human) was over 10 µM throughout.

Take PTH(1-10) (peptide): the Stimulation of receptor (cAMP), EC50 in the test with Human PTHR1 WT (human) came to 3.12 µM; with PTHR16E (human), 5.08 µM; with PTHR1YFPΔECD (human) it was 3.84 µM. Moreover, the cAMP induction EC50 with Human PTHR1 WT (human) was 3.12 µM; with PTHR16E (human), 5.08 µM; with PTHR1GFP (human) it was 2.55 µM; with PTHR1YFPΔECD (human), 3.84 µM; in the test with rat PTHR1 (rat) it was 2.47 µM. Besides, the cAMP induction Max (normalized) was determined as 1.03 normalized with Human PTHR1 WT (human); 1.09 normalized with PTHR16E (human); 1.16 normalized in the test with PTHR1GFP (human); 1.12 normalized in the test with PTHR1YFPΔECD (human); 1.09 normalized with rat PTHR1 (rat).

In the case of PTH(1-11) (peptide), the Stimulation of receptor (cAMP), EC50 with Human PTHR1 WT (human) was 0.516 µM; in the test with PTHR16E (human) it was 0.094 µM; with PTHR1YFPΔECD (human), 0.246 µM. Further, the cAMP induction EC50 in the test with Human PTHR1 WT (human) was 0.516 µM; with PTHR16E (human), 0.094 µM; with PTHR1GFP (human) it was 0.079 µM; with PTHR1YFPΔECD (human), 0.246 µM; with human PTHR2 (human) it was over 100 µM; in the test with rat PTHR1 (rat) it was 0.12 µM. For the same substance, the cAMP induction Max (normalized) in the test with Human PTHR1 WT (human) worked out at 1.01 normalized; with PTHR16E (human), 1.09 normalized; in the test with PTHR1GFP (human), 1.1 normalized; with PTHR1YFPΔECD (human) it was 1.02 normalized; in the test with human PTHR2 (human), 0.36 normalized; with rat PTHR1 (rat), 1.02 normalized. In addition, in the test with PTHR1GFP (human), the half maximal stimulation (cAMP-sensitive luciferase) came to 200 nM. In the test with human PTHR2 (human), this substance showed a cAMP induction, percent at 100 uM of 20 % at 100 µM.

PTH(1-14) (peptide): the Stimulation of receptor (cAMP), EC50 in the test with Human PTHR1 WT (human) is 0.0043 µM; in the test with PTHR16E (human), 0.0034 µM; with PTHR1YFPΔECD (human) it was 0.0011 µM. In addition, the cAMP induction EC50 with Human PTHR1 WT (human) worked out at 0.0043 µM; with PTHR16E (human) it was 0.0034 µM; with PTHR1GFP (human), 0.0023 µM; with PTHR1YFPΔECD (human), 0.0011 µM; in the test with human PTHR2 (human), 0.924 µM. Besides, the cAMP induction Max (normalized) with Human PTHR1 WT (human) turned out to be 1.01 normalized; in the test with PTHR16E (human), 1.06 normalized; with PTHR1GFP (human), 1.09 normalized; with PTHR1YFPΔECD (human), 0.96 normalized; with human PTHR2 (human), 1.14 normalized.

VHHGFP-PTH(1-9): in the test with PTHR1GFP (human), the cAMP induction EC50 is over 0.1 µM. In the test with PTHR1YFPΔECD (human), the Stimulation of receptor (cAMP), percent activation (% activation at 100 nM) turned out to be 40; the cAMP induction Max (normalized) came to 0.38 normalized; the cAMP induction, percent activation (% activation at 100 nM) came to 40.

Take VHHGFP-PTH(1-10): the cAMP induction EC50 with PTHR1GFP (human) was over 0.1 µM. In the test with PTHR1YFPΔECD (human), this substance came in with a Stimulation of receptor (cAMP), EC50 of 0.00046 µM; a cAMP induction EC50 of 0.00046 µM; a cAMP induction Max (normalized) of 1.06 normalized; a potency, fold against PTH(1-10) of 7800 fold.

Consider VHHGFP-PTH(1-11), for which, in the test with Human PTHR1 WT (human), the Stimulation of receptor (cAMP), EC50 was over 0.1 µM; the activation of PTHR1 was over 100 nM; the cAMP induction EC50 was over 0.1 µM. In the test with PTHR16E (human), the Stimulation of receptor (cAMP), EC50 is over 0.1 µM and the cAMP induction EC50 is over 0.1 µM. In the test with PTHR1GFP (human), this substance yielded a cAMP induction EC50 of 0.008 µM and a cAMP induction Max (normalized) of 1.1 normalized. In the test with PTHR1YFPΔECD (human), the Stimulation of receptor (cAMP), EC50 came to 0.00014 µM; the activity, fold enhancement against PTH(1-11) is over 20000 fold; the cAMP induction EC50 came out at 0.00014 µM; the cAMP induction Max (normalized) amounted to 1.19 normalized. This substance returned a cAMP induction EC50 in the test with rat PTHR1 (rat) of over 0.1 µM.

As for VHHGFP-PTH(1-14), the Stimulation of receptor (cAMP), EC50 in the test with Human PTHR1 WT (human) was over 0.1 µM; with PTHR16E (human), over 0.1 µM; in the test with PTHR1YFPΔECD (human), 0.00058 µM. For the same substance, the cAMP induction EC50 with Human PTHR1 WT (human) was over 0.1 µM; with PTHR16E (human), over 0.1 µM; with PTHR1GFP (human), 0.0018 µM; with PTHR1YFPΔECD (human) it was 0.00058 µM. The cAMP induction Max (normalized) was 1.21 normalized with PTHR1GFP (human) and 1.16 normalized in the test with PTHR1YFPΔECD (human).

Values taken from US20200316217A1.
